{
  "source": "patent US20040063116",
  "proteins": {"B1": {"name": "plasmepsin II (protein)", "chain": "MDITVREHDFKHGFIKSNSTFDGLNIDNSKNKKKIQKGFQILYVLLFCSVMCGLFYYVYENVWLQRDNEMNEILKNSEHLTIGFKVENAHDRILKTIKTHKLKNYIKESVNFLNSGLTKTNYLGSSNDNIELVDFQNIMFYGDAEVGDNQQPFTFILDTGSANLWVPSVKCTTAGCLTKHLYDSSKSRTYEKDGTKVEMNYVSGTVSGFFSKDLVTVGNLSLPYKFIEVIDTNGFEPTYTASTFDGILGLGWKDLSIGSVDPIVVELKNQNKIENALFTFYLPVHDKHTGFLTIGGIEERFYEGPLTYEKLNHDLYWQITLDAHVGNIMLEKANCIVDSGTSAITVPTDFLNKMLQNLDVIKVPFLPFYVTLCNNSKLPTFEFTSENGKYTLEPEYYLQHIEDVGPGLCMLNIIGLDFPVPTFILGDPFMRKYFTVFDYDNHSVGIALAKKNL"}},
  "key": {"[1]": {"biological_target": "T1, RNase A zymogen with 88/89 termini, P61823", "T1 chain": "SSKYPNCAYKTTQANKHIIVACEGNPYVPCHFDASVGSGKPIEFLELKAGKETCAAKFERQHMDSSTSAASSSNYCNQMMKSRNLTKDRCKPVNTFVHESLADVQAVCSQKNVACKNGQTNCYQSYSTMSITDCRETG"}, "[2]": {"biological_target": "T2, RNase A zymogen with 67/71 termini, P61823", "T2 chain": "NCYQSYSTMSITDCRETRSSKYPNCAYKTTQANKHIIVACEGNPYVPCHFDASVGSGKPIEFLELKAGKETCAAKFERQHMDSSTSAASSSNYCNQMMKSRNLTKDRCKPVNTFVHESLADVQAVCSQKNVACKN"}, "[3]": {"biological_target": "T3, RNase A zymogen with 104/105 termini, P61823", "T3 chain": "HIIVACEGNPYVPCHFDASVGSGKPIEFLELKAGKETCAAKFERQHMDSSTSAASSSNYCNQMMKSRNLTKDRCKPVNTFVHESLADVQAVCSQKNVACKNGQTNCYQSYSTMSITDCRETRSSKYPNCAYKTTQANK"}, "[4]": {"biological_target": "T4, RNase A zymogen with 113/114 termini, P61823", "T4 chain": "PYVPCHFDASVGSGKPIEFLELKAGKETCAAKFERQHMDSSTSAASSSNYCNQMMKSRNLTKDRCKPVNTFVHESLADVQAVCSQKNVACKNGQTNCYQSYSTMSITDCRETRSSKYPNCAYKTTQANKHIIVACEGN"}, "[5]": {"biological_target": "RNase A zymogen with 20/21 termini, P61823", "sequence (P61823 whole entry, looked up)": "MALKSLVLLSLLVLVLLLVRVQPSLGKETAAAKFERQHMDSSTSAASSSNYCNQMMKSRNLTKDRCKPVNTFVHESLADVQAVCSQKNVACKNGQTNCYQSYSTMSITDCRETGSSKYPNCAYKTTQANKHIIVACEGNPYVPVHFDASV"}},
  "data": [
    {"protein": "B1", "values": [
      {"measurement": "proteolytic cleavage of the zymogen (SDS-PAGE) and gain of ribonucleolytic activity", "setting": "[1]", "result": "The proteolytic cleavage by plasmepsin II was complete within 10 minutes at an approximately 1:100 molar ratio of protease to zymogen"},
      {"measurement": "proteolytic cleavage of the zymogen (SDS-PAGE) and gain of ribonucleolytic activity", "setting": "[2]", "result": "The proteolytic cleavage by plasmepsin II was complete within 10 minutes at an approximately 1:100 molar ratio of protease to zymogen"},
      {"measurement": "proteolytic cleavage of the zymogen (SDS-PAGE) and gain of ribonucleolytic activity", "setting": "[3]", "result": "The proteolytic cleavage by plasmepsin II was complete within 10 minutes at an approximately 1:100 molar ratio of protease to zymogen"},
      {"measurement": "proteolytic cleavage of the zymogen (SDS-PAGE) and gain of ribonucleolytic activity", "setting": "[4]", "result": "The proteolytic cleavage by plasmepsin II was complete within 10 minutes at an approximately 1:100 molar ratio of protease to zymogen"},
      {"measurement": "proteolytic cleavage of the zymogen (SDS-PAGE) and gain of ribonucleolytic activity", "setting": "[5]", "result": "The proteolytic cleavage by plasmepsin II was complete within 10 minutes at an approximately 1:100 molar ratio of protease to zymogen"}
    ]}
  ]
}
